System: AcrIIC5Smu

In the case of “Nme1Cas9-Nme2Cas9PID chimera (Nme1Cas9 with its PID replaced by that of Nme2Cas9)”, the “in vitro DNA cleavage by the PID-swapped chimera in the presence of Acr (10-fold ratio; ~30x higher Cas9 concentration)” value is reported as “No inhibition was observed by AcrIIC5Smu on this protein chimera”.

— patent US20240408238
